# T1: PHYTOCHROME-INTERACTING FACTOR 7 with Flash tag (35S::PIF7-Flash; 9xMyc-6xHis-3xFlag) (Arabidopsis thaliana, UniProt Q570R7 1-366)
# T1 sequence (looked up): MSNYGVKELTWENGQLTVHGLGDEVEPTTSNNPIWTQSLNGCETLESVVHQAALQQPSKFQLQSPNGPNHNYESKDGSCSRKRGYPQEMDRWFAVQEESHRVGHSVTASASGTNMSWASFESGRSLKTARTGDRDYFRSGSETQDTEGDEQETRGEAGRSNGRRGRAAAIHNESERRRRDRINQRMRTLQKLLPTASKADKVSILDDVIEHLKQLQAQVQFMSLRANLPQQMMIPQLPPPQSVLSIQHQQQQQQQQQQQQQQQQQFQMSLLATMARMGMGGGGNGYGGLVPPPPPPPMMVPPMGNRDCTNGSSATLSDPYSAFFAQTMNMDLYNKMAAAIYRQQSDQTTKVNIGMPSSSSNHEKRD
# Target: T1, PHYTOCHROME-INTERACTING FACTOR 7 with …
# Assay: co-IP
binder,measurement,value
"ANGUSTIFOLIA3 / GRF-INTERACTING FACTOR 1 with GS^yellow tag (35S::AN3-GS^yellow) (natural protein, Arabidopsis thaliana, UniProt Q8L8A5 1-210, looked up) MQQHLMQMQPMMAGYYPSNVTSDHIQQYLDENKSLILKIVESQNSGKLSECAENQARLQRNLMYLAAIADSQPQPPSVHSQYGSAGGGMIQGEGGSHYLQQQQATQQQQMTQQSLMAARSSMLYAQQQQQQQPYATLQHQQLHHSQLGMSSSSGGGGSSGLHILQGEAGGFHDFGRGKPEMGSGGGGEGRGGSSGDGGETLYLKSSDDGN",binding result,binds

# — paper PMC8812563 (Proceedings of the National Academy of Sciences of the …, 2022)
